The test system of test [1] is Human osteoblasts (HOB) cells. Briefly: Cell attachment on wells coated with BSA-conjugated extended P1 peptide, BSA or FN. The note with it: soluble peptide 100 μg/ml, compared to RAD control peptide. Type of test: cell-based. On the procedure: 96-Well ELISA plates were coated with 1 μg/ml of bovine serum albumin (BSA) conjugated peptide (“Extended P1”: […]c; SEQ ID NO:29) conjugated through its C-terminal cysteine via Beta-maleimidopropionic acid N-hydroxysuccinimide ester (MPS). Peptides were dissolved in NaHCO3/Na2CO3 coating buffer, pH 9.6 and plates coated at 4° C. for overnight. Wells coated with 1 μg/ml BSA NaHCO3/Na2CO3 coating buffer or 5 μg/ml FN in 50 mM Tris-HCl, pH 7.4 were used as the control coating materials. Human osteoblasts (HOB) cells in suspension was treated with 100 μg/ml RAD (GRADS; SEQ ID NO:9) or RGD (GRGDTP; SEQ ID NO:8) peptide for 20 min, the cells (3×10^4/well) were seeded into the wells, previously washed with 50 mM Tris-HCl, pH 7.4, and allowed to settle for 30 min. Attached cells were washed once with PBS, pH 7.4, and then fixed with 3.7% paraformaldehyde, further permeabilized with 0.1% (v/v) Triton® X-100 detergent in PBS, and co-stained with May-Grunwald and Giemsa stains as described previously.

A further test concerns FN. Briefly: Measurement of TG2 binding to FN by ELISA (cell lysates). The note with it: lysates of transfected HEK293T/17 cells, normalised for expression. On the procedure:
Microtitre 96 well plates were coated with 50 μl of 5 μg/ml FN in 50 mM Tris-HCl, pH 7.4 at 4° C. overnight. The wells were blocked for 30 min with 5% (w/v) fat-free milk in PBS, pH 7.4 and washed twice with PBS-TWEEN® detergent, pH 7.4 and once with PBS, pH 7.4. Aliquots (100 μl) of cell lysate containing 60 μg protein were added to the FN-coated wells and incubated for 1 h at 37° C. After washing three times with PBS, pH 7.4, wells were blocked with 100 μl 3% BSA in PBS, pH 7.4 (blocking buffer) for 30 min at room temperature and then incubated with 100 μl Cub7402 (1:1000 dilution in blocking buffer) for 2 h at 37° C. After washing three times with PBS, pH 7.4, the wells were incubated with 100 μl rabbit anti-mouse IgG-HRP conjugated antibody (1:1000 dilution in blocking buffer) for 2 h at 37° C. HRP was detected by the addition of 100 μl of o-phenylenediamine substrate solution (SigmaFast […]™ OPD, Sigma). Colour development was terminated by the addition of 50 μl of 2.5M H2SO4 and absorbance at 490 nm was measured. The amount of TG2/mutant TG2 binding to the FN was normalised between samples by using the densitometry values from Western blotting for the TG protein found in each of the cell lysates used. α-Tubulin was used to normalise for any differences in protein loading.

Test [2] is described as follows: Binding of TG2 to heparin SEPHAROSE, elution with NaCl gradient. The note with it: compared with wt TG2. On the procedure: HEK cells, transiently transfected with wild-type and mutant TG2 were washed twice with ice cold PBS, pH 7.4 and lysed by the addition of 150 μl of 20 mM Tris-HCl pH 7.4, 10 mM EGTA, 2 mM EDTA, 1 mM NaF and 1 mM Na3VO4. After clarification by centrifugation, lysates were mixed with 450 μl of 50 mM Tris-HCl, 1 mM EDTA, 1 mM DTT, pH 7.5 and applied to a 5 ml Heparin SEPHAROSE® column (GE Healthcare) equilibrated in 50 mM Tris-HCl, 1 mM EDTA, 1 mM DTT pH 7.5 (buffer) at a flow rate of 1 ml/min. For the analysis of GTP-bound TG2 (closed conformation), lysates were pre-incubated for 1 h at room temperature with 0.5 mM GTP in 50 mM Tris-HCl, 2 mM MgCl2, 1 mM EDTA, 1 mM DTT pH 7.5. For the analysis of inhibitor-reacted TG2 (open conformation), lysates were incubated with 0.5 mM of irreversible inhibitor R281 (Griffin et al., 2008) and 10 mM CaCl2. The column was washed with 25 ml of buffer and protein was eluted with a linear gradient of increasing NaCl concentration (0-1M) in buffer. Fractions were assayed for TG2 activity and analysed for the presence of TG2 antigen by SDS-PAGE and Western blotting using CUB7402.

In the next test the test system is NIH 3T3 cells. The test is described as follows: Detection of TG2 at cell surface (biotinylation), in ECM and in culture medium of transfected cells. Type of test: cell-based, mouse. The note with it: transfected NIH 3T3 cells, biotinylation and Western blot, vs wild-type TG2. On the procedure: Cell surface proteins were labelled by biotinylation as described previously (Wang et al., 2010). Briefly, cell monolayers were rinsed three times with ice-cold PBS pH 8.0 and labelled with 0.8 mM sulfo-NHS-LC-biotin dissolved in PBS pH 8.0 at 4° C. for 20 min. Cells were then washed with 50 mM Tris-HCl, pH 8.0 and lysed with 1% SDS at 4° C. in PBS pH8.0. Following denaturation at 95° C., cell lysates were clarified by centrifugation at 14,000×g at 20° C. and 200 μg of protein was incubated overnight at 4° C. with NEUTRAVIDIN® avidin protein-Agarose resin. After washing three times with PBS pH 8.0, the biotin-labelled proteins were dissolved in 2× Laemmli buffer separated by SDS-PAGE and subjected to Western blotting.
Following transfection, cells were incubated for 24 h with 10% (v/v) serum, which was replaced with 1% (v/v) serum and TG2 expression was allowed to proceed for a further 48 h. Proteins from 1 ml of medium were precipitated by the addition of ice cold 20% (w/v) trichloroacetic acid (TCA) to a final concentration of 10% (w/v) Pelleted proteins were then washed once with ice cold 10% (w/v) TCA, ethanol-acetone (1:1) and acetone, and resuspended in 2× Laemmli buffer (Sigma-Aldrich, UK) and analysed by SDS-PAGE and Western blot analysis using monoclonal anti-TG2 antibody (Cub7402). The remaining cells were detached with 2 mM EDTA in PBS, pH 7.4 and the ECM was extracted with 0.1% (w/v) deoxycholate in PBS, pH 7.4. The residual deoxycholate-insoluble ECM proteins were dissolved in 2× Laemmli buffer for further analysis by SDS-PAGE and Western blotting using Cub7402.

In the case of “GRGDTP [RGD peptide, synthetic RGD peptide from Calbiochem]”, the “block of cell attachment on the FN matrix” value in test [1] is “around 50%”.

B1: D94A, D97A: TG2 fibronectin binding site mutant (protein, UniProt P21980 2-687, looked up, variant D94A D97A)
Protein-glutamine …: AEELVLERCDLELETNGRDHHTADLCREKLVVRRGQPFWLTLHFEGRNYEASVDSLTFSVVTGPAPSQEAGTKARFPLRDAVEEGDWTATVVAQQACTLSLQLTTPANAPIGLYRLSLEASTGYQGSSFVLGHFILLFNAWCPADAVYLDSEEERQEYVLTQQGFIYQGSAKFIKNIPWNFGQFEDGILDICLILLDVNPKFLKNAGRDCSRRSSPVYVGRVVSGMVNCNDDQGVLLGRWDNNYGDGVSPMSWIGSVDILRRWKNHGCQRVKYGQCWVFAAVACTVLRCLGIPTRVVTNYNSAHDQNSNLLIEYFRNEFGEIQGDKSEMIWNFHCWVESWMTRPDLQPGYEGWQALDPTPQEKSEGTYCCGPVPVRAIKEGDLSTKYDAPFVFAEVNADVVDWIQQDDGSVHKSINRSLIVGLKISTKSVGRDEREDITHTYKYPEGSSEEREAFTRANHLNKLAEKEETGMAMRIRVGQSMNMGSDFDVFAHITNNTAEEYVCRLLLCARTVSYNGILGPECGTKYLLNLNLEPFSEKSVPLCILYEKYRDCLTESNLIKVRALLVEPVINSYLLAERDLYLENPEIKIRILGEPKQKRKLVAEVSLQNPLPVALEGCTFTVEGAGLTEEQKTVEIPDPVEAGEEVKVRMDLLPLHMGLHKLVVNFESDKLKAVKGFRNVIIGPA
Regarding B1, the “binding to FN compared to wild type TG2” value in the test on FN is listed as “approximately 50%”. Also, the “binding to heparin SEPHAROSE (in words)” value in test [2] is given as “comparable elution profile to the wt enzyme”. Also, the “presence on the cell surface” value in the test on NIH 3T3 cells is given as “greater levels”.
